Our source for the stoichiometry N and percent of the preparation as dimer values is article doi:10.1101/2021.05.10.443404.

The target of assay [1] is (RBD(319-541)-CHO)2 (SARS-CoV-2) (UniProt P0DTC2). The assay is described as follows: SDS-PAGE.
Assay [2] concerns the target RBD(319-541)-HEK_A3 (SARS-CoV-2) (UniProt P0DTC2). The assay is described as follows: SDS-PAGE.

What is called stoichiometry N is the number of molecules, sites or subunits per partner or assembly. “(RBD(319-541)-CHO)2 (from UniProt P0DTC2 319-541) (domain or fragment)” came in with a stoichiometry N in assay [1] of 2.

In assay [2], “RBD(319-541)-HEK_A3 (from UniProt P0DTC2 319-541) (domain or fragment)” registered a percent of the preparation as dimer of 13% and a stoichiometry N of 2.
